# Assay: yeast display, Sf9 membrane polyspecificity reagent, FACS + sequencing; frameworks hold sequencing errors
# Method in brief: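 Nanobodies came from a synthetic yeast display library in Saccharomyces cerevisiae BJ5465, induced with galactose for 36–48 hours and stained for 1 hour at 4 °C with 10% biotinylated, detergent-solubilized Sf9 membrane reagent. Cells were enriched on streptavidin microbeads and then FACS-sorted, with low and high (top ~1%) gates set on anti-HA fluorescence for expression and streptavidin fluorescence for reagent binding. Each polyreactivity label reflects the gate a clone came from. Genes were amplified by colony PCR, sequenced by MiSeq 2 × 250 and filtered by CDR length.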
row,Sequence,polyreactivity (PSR sort gate)
1,QVQLVESGGGLVKAGGSLRLSCDASGSILWENAMGWYRQAPGKERELVATISVSGGGTYYADSVKGRFTISRDNAKNTVYLQMNSLKPEDTAVYYCNARYGNESQGWEDYWGKGTQVTVSS,low polyreactivity
2,QVQLVESGGGLVQAGGSLRLSCAASGRTFIYYAMGWYRQAPGKERELVAGITYSVGSTYYADSVKGRFTISRDNEKNTVYLQMNSLKPEDTAVYYCAYYYWGQGTQVTVSS,low polyreactivity
3,QVQLVESRGVLVQAGGSLRLSCAASGSNFYVYAMGWYRPAPGKERELVAGISWSADSTYYADSVKGRFTISRDNAKYTVYLQMNSLKPEDSAVYYCATDRYPTRRYDYWGQGTQVTVSS,low polyreactivity
4,QVQLVESGGCLVQAGGSLGLSCAASGFSFLEYAKGWYRQAPGKERELVAVISRRGGRTYYADSVKGRFTISRDNAKITVFLQMNSLNPEDTEVYYWNARISGCVWHYDYWGQGTQVTVSS,high polyreactivity
5,QVQLEESRGGIVQAGGSLRLSCAASGFTFSTYAMGWYRPAPGKELELVASISRSGNTNYADSVKGRFTISRDNAKNTVYLQMKSLKPEDTAVYSSAAELVYRRVRYDYWGQGTQVTVSS,high polyreactivity
6,QVQLVESGGGLVQAGGSLRLSCAASGRIFHRYAMGWYRQAPGKERELVAAISYSTARTYYADSVKGRFTISRDNAKNTVYLQMNSLKPEDTAVYYCAARYQGGYDYWGQGTQVTVSS,high polyreactivity
7,QVQLVESGGGLVQAGGSLRLSCAASGSLFSGNAMGWYRQAPGKEREFVAAISRSGSSTYYADSVKGRFTISRDNAKNPVYLQMNSLKPEDTAVYYCASRFGDMGYWGQGTQVTVSS,high polyreactivity
8,QVQLVESGGGLVQAGGSLRLSCDASGFTFVSYAMGSYRQAPGKERELVAVISYRAGSTYYADSVKGRFTISRDNAKNTVYLPMYSLKPEDTAVYYCATDRYSRRNDYWGQGTQVTVSS,high polyreactivity
9,QVQLVESGGGFVQAGGSLRLSCAASGLTLFRYAMGWYSQAPGKEREFVAAISPSGDRTYYADSVKGRFTISRDNAKNTVDLQMNSLKPEDTAVYYCNAWRYDYWGQGTQVTVSS,high polyreactivity
10,QVQLEESGGGLVQAGGSLRLSCAASGNTFTEYAMGWYRPAPGKEWELVASITGSGGSTYADSVKGRFTISRDNAKNSVYLQMNSLIAEDTAVYYCAKDTRYEYVGSEYGYWGQGTQVTVSS,low polyreactivity
11,QVQLVESGGGLVQAGGSLRLSCAASGRTFYGYTMGWYRQAPGKERELVAAIRTSGGSTYADSVKGRFTISRDNAKNTVYLQMNSLKPEDTAVYYCAAPRVVYYGTAPAYRYDYWGQGTQVTVSS,high polyreactivity
12,QVQLVESGGGLVQAGGSLRLSCAASGRIFGGYTMGWSRPAPGKERELVAAITGSGGRTYYADSVKGRFTISRDNAKNTVYLQMNSLQPEDTAVYYCNTVYRYLYSWGQGTQVTVSS,high polyreactivity
13,QVQLVESGGGLVQAGGSLRLSCAASGRTFDHNAMGWYRQAPGKERELVAAINSSGGRTYYADSVKGRFTISRDNAQNTVYLQMNSLQPEDTAVYYCATVNVRGPPYDYWGQGTQVTVSS,high polyreactivity
14,QVQLVESGGGLVQAGGSLRLSCAASGFTFPQYVMGGYRQAPGKERELVAAISSRGGRTYYADSVKGRFTISRDNAKNTVYLQMNSLIPEDTAVYYCAKGKRDSRAFDYWGQGTQVTVSS,high polyreactivity
15,QVQLVESGGGLVQAGGSLRLSCAASGSIFLIYAMGWYRQAPGKERELVAAIDWGGGANTYYADSVKGRFTISRDNAKNTVYLQMNSLKPEDTAVYYCAVDSYTSGYEYWGQGTQVTVSS,low polyreactivity
16,QFQLVESGGGLVQAGGSLRLSCAASGIMFGYYAMGWYRQAPGKERELVAALTRSGGSTYYADSVKGRFTISRDNAKNTVYLQLNSLKPEDTALYYCNGDDDGRVSSTIVEYWGQGTQVTVSS,low polyreactivity
17,QVQLVESGGGLVQAGGSLRLSCAASGSTFVPYAMGWYRQAPGKERELVATIRWRGDRTYYADSVKGRFTSSRDNAKKTVYLQMNSLKPEDTAVYYCNTAGWSFYSGRYDYWGQGTQVTVSS,high polyreactivity
18,QVQLVESGGGLVQAGGSLRLSCAASGRTVLVYTMGWYRQAPGKERELVAAISWSDGSTYYADSVKGRFTMSRDNAKNTVYLHMNSLKPEDTAVYYCAARTFSAFWRGGYDYWGQGTQVTVSS,low polyreactivity
19,QVQLVESGGGLVQAGGSLRLSCAASGRTFWYYAMGWYRPAPGKERELVASISLSGSRTNYADSVKGRFTIARDNAKNTVYLQINRLKPEDTAVYYCAADNFRQFGEYDYLGQGTQVTVSS,low polyreactivity
20,QVQLVESGGGLVQAGGSLRLSCAASGSTFAIYAMGWYRQAPGKERELVASISGGSTNYADSVKGRFTISRDNAKNTVYLQMNSLKPEDTAVYYCAARGALHHWYSYDYWGQGTQVTVSS,low polyreactivity
21,QVQLVESGGGLVHAGGSLRLSFAASGRTFQVYAMGWSRQAPGKERELVAAITSLGGTYYADSVKGRFTISRYNAKNTVYLQMNSLKPEDTAVYYCAARARSTPRKYYYTRGYWGQGTQVTVSS,high polyreactivity

row,Sequence,polyreactivity (PSR sort gate)
1,QVQLVESGGGIVQAGGSLRLSCAASGRTFTYNAMGRYRQAPGKERELVAAITYRGGSTYYADSVKGRFTISRDNAKNTVYLQMNSLKPEDTAVYYCAARVSYYRYNTPHYYYWGQGTQVTVSS,high polyreactivity
2,QVQHVESGGGLGQAGGSLRLSCAASGLTFSVYAMGWSRQAPGKERELYAAISYSGVSTYADSEKGRFTISRDNAKNTVYLQMNSLKPEDTAVYYCNARWVREGYRRWYDYWGQGTQVTVSS,low polyreactivity
3,QVQLVESGGGLVQAGGSLRLSCAASGRTLYRNDMGWYIQAPGKERELVARITWSGASTYYADSVKGRFTISRDNAKNSVYLQMKSLKTEDTAVYFCAALYLSRRYGPDDSYNFWGQGTQVTVSS,high polyreactivity
4,QVQLVESGGGLVQAGGSLRLSCAASGRIFFVNTMGWYRQAPVKERELVATISCSGGSTYYADSVKGRFTISRDNAKNTVYLQMNTLKPEDTAVYYCNRSLTGYDELGYPVPYTYDYWGQGTQVTVSS,low polyreactivity
5,QVQLVESGGGLVQAGGSLRLSCAASGSTFYNNAMGWYRQAPGKERELVAAITASGGRTYYADSVKGRFTISRDNAKNTVYLQMNSLKPEDTAVYYCAADGHAGYPIDEYYYWGQGTQVTVSS,high polyreactivity
6,QVQLVESGRGLVQAGGSLRLSCAASVGTFDKNAMGCYRQAPGNERELVAALTYGGGSTYYADSVKGRFTISRDNAKNTVYLQMNSLKPEDTAVYYCAVAIITYPYATGSSYDYWGQGTQVTVSS,low polyreactivity
7,QVQLVESGGGLLQAGGSLRLSCAASGLIFRSYAMGWYRQAPGKERDLVAAITDLFWSTYYADSVKGRFTISRDNAKNTVYLQMNSLKPEDTAVYYCARDDWVYTNVEMDYWGQGTQVTVSS,high polyreactivity
8,QVQLVESGGGLVQAGGSLRLSCAASGFIVDTYAMGWYRQAPGKERELVAVISSSGGRTYYADSVKGRFTISRDNAKNTVYFQMNSLKPEDTAVYYCAARWYSGYGRFDYWGQGTQVTVSS,high polyreactivity
9,QVQLVESGGGLVQAGGSLRLSCAASGGTFGTYAMGWYRQAPGKERELVAAITYRGGRTYYADSVKGRFTISRDNAKYTVYLQLDCVKPEDSAVYYCAKDVRGHRHPYSLRDYWGEGTQVTVSS,high polyreactivity
10,QVQRVESGGGLVQAGGSRRLSCAASGSIFSAYAMGWYRQAPGKEREFVAAITRRGGNTYYADSVKGRFTISRDNAKNTVYLQMNSLKPDDTAVYYCAADAGGGPFDYSGQGTQVTVSS,low polyreactivity
11,QVQLVESGGGLVQAGGSLRLSCAASGSTFPEYAMGWYRKAPGKERELVAAISKSGGRTYYADSVKGRFTISRDNAKNTVYLQMNSLNPEDTAVYYCARDSYPHGRARFDYWGQGTQVTVSS,high polyreactivity
12,QVQLVESGGGLVQAGGSLRLSCAASGRIFFPYDMGWYRQAPGKERELVAAITNSGGRTYYADSVKGRFTISRDNAKNTVYLQMNSLKPEDTAVYYCNADAYEFRWVKHYDYWGQGTQVTVSS,low polyreactivity
13,QVQLVESGGGLVQAGGSLRLSCAASGNTFNYYTMGWYRQEPGKERELVAAIRSGGRTYYADSVKGRFTISRDNAKNTVYLLMNSLIPEDTAVYDCAAVAVTYRYDYWGQGTQVTVSS,high polyreactivity
14,QVQLVESGGGLVQAGGSLRLSCAASGSTFEQYAMGGYRQAPGKEKELDAAISGSGTRTYYADSVKGRFTISRDNAKNTVYLQMNSLKAEDTAVYYCAARFSYPAILQAYYHWGQGTQVTVSS,high polyreactivity
15,QVQLVESGGGLVQAGGSLRLSSAASGSTFEYNAMGWYRQAPGKERELVASSTNYADSVKGRFTISRDNAKNTVYLQMNSLKPEDTAVYYCAREQGVNRNHDYWGQGTQVTVSS,low polyreactivity
16,QVQLVESGGGLVQAGGSLRLSCAASGLIFTPYAMGWYRQAPGKERELVAAINYGGSRTYYADSVKGRFTISRDNAKNTVYLQMNSLKPEDTAVYYCNVVKRSFRYDYWGEGTQVTVSS,high polyreactivity
17,QVQLVESGGGLVQAGGSLRLSCAASGSIYRYAMGSYRQAPGKERELVAAINFNGGRTYYADSVKGRFTISRDNAKNTVYLQMNSLKPEDTAVYYCAAVRSSNQGGFDYWGQGTQVTVSS,high polyreactivity
18,HVQLVESGGGLVQAGGSLRLSCAASGRIFRINVMGWCRQAPGKERELVAAISGRGGSTYYADSVKGRFTISRDNAQNTDYLQMNRLKPEDTAVYYFAARSPYRYYYWGQGTQVTVSS,high polyreactivity
19,QVQIVESGGGLVQAGGSLRLSCAASGFIIGKYTMGWYRQAPGKEREFVAAIRRSGASTYYADSVKGRFTISRDNAKNTVYLQMNSLKPEDTAVYYCSQAGYSPVYGYWGQGTQVTVSS,high polyreactivity
20,QVQLVESGGGLVQAGGSIRLSCAASGRTFHYNVMGGYRQAPGNERELVAAITNTGGSTYYADSVKGRFTISRDNAKNTVYLQMYSLKPVDTAVYYCAAVIWGRRYGAYPYEYWGQGTQVTVSS,low polyreactivity

# Source: the nanobody polyreactivity screen of Harvey et al. (2022)
